From US10745460B2, “Peptides and combination of peptides for use in immunotherapy against various tumors” (Immatics Biotechnologies GmbH, priority 2015, dated 2020)

system: CD8+ T cells; assay: In vitro T-cell priming assay with aAPCs loaded with peptide/MHC complexes and anti-CD28 antibody (in vitro immunogenicity); format: cell-based, human; conditions: percentage of positive donors, healthy HLA-A*02 donors
Text: In order to obtain information regarding the immunogenicity of the TUMAPs of the present invention, the inventors performed investigations using an in vitro T-cell priming assay based on repeated stimulations of CD8+ T cells with artificial antigen presenting cells (aAPCs) loaded with peptide/MHC complexes and anti-CD28 antibody.
In order to perform in vitro stimulations by artificial antigen presenting cells loaded with peptide-MHC complex (pMHC) and anti-CD28 antibody, the inventors first isolated CD8+ T cells from fresh HLA-A*02 leukapheresis products via positive selection using CD8 microbeads (Miltenyi Biotec, Bergisch-Gladbach, Germany) of healthy donors obtained from the University clinics Mannheim, Germany, after informed consent. […] Generation of pMHC/anti-CD28 coated beads, T-cell stimulations and readout was performed in a highly defined in vitro system using four different pMHC molecules per stimulation condition and 8 different pMHC molecules per readout condition. […]
800.000 beads/200 μl were coated in 96-well plates in the presence of 4×12.5 ng different biotin-pMHC, washed and 600 ng biotin anti-CD28 were added subsequently in a volume of 200 μl. […] Peptide specific cells were calculated as percentage of total CD8+ cells. […] In vitro priming of specific multimer+ CD8+ lymphocytes was detected by comparing to negative control stimulations. […]

Row | Substance | donors
1 | 288 (SLYKGLLSV; listed as Homo sapiens) [compound 288] | ++++ (>=70% = ++++)

same assay, conditions: percentage of positive wells, healthy HLA-A*02 donors

Row | Substance | wells
2 | 287 (KIQEILTQV; listed as Homo sapiens) [compound 287] | + (<20% = +)

biological target: HLA-A*02:01 (Homo sapiens, UniProt P04439, D140Y/D185E/D98H/E176V/E277Q/G131W/G231S/I119V/I121R/I166T/I218V/L300P/L318F/N151K/N90K/P208A/P217A/Q86G/Q94H/R138H/R169H/T345S); assay: MHC binding assay: UV-ligand exchange with β2m ELISA (peptide exchange yield); conditions: binding to HLA-A*02:01 evaluated by peptide exchange yield (UV-ligand exchange, β2m ELISA)
In short: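 Exchange yield, UV-ligand exchange: 100-fold diluted samples on streptavidin plates, 1 h at 37 °C; HRP anti-β2m 1 h at 37 °C; TMB read at 450 nm.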

Row | Substance | Peptide exchange
3 | 233 (SLFESLEYL; listed as Homo sapiens) [compound 233] | +++ (≥50 = +++)
4 | 234 (VLLNEILEQV; listed as Homo sapiens) [compound 234] | ++++ (≥75% = ++++)
5 | 236 (KMSELQTYV; listed as Homo sapiens) [compound 236] | +++ (≥50 = +++)
6 | 238 (HLQEKLQSL; listed as Homo sapiens) [compound 238] | ++ (≥20% = ++)
7 | 239 (VIIKGLEEITV; listed as Homo sapiens) [compound 239] | +++ (≥50 = +++)
8 | 241 (KQFEGTVEI; listed as Homo sapiens) [compound 241] | +++ (≥50 = +++)
9 | 244 (NVAEIVIHI; listed as Homo sapiens) [compound 244] | +++ (≥50 = +++)
10 | 245 (ALLEEEEGV; listed as Homo sapiens) [compound 245] | ++ (≥20% = ++)
11 | 246 (ALAGIVTNV; listed as Homo sapiens) [compound 246] | +++ (≥50 = +++)
12 | 247 (NLLIDDKGTIKL; listed as Homo sapiens) [compound 247] | ++ (≥20% = ++)
13 | 248 (VLMQDSRLYL; listed as Homo sapiens) [compound 248] | +++ (≥50 = +++)
14 | 250 (LMQDSRLYL; listed as Homo sapiens) [compound 250] | +++ (≥50 = +++)
15 | 252 (SLMEKNQSL; listed as Homo sapiens) [compound 252] | ++ (≥20% = ++)
16 | 253 (KLLAVIHEL; listed as Homo sapiens) [compound 253] | +++ (≥50 = +++)
17 | 255 (FLMKNSDLYGA; listed as Homo sapiens) [compound 255] | +++ (≥50 = +++)
18 | 257 (KLIDHQGLYL; listed as Homo sapiens) [compound 257] | +++ (≥50 = +++)

Row | Substance | Peptide exchange
19 | 260 (ALNESLVEC; listed as Homo sapiens) [compound 260] | +++ (≥50 = +++)
20 | 261 (GLAALAVHL; listed as Homo sapiens) [compound 261] | +++ (≥50 = +++)
21 | 262 (LLLEAVWHL; listed as Homo sapiens) [compound 262] | +++ (≥50 = +++)
22 | 265 (FLLDKPQDLSI; listed as Homo sapiens) [compound 265] | +++ (≥50 = +++)
23 | 267 (YLLDMPLWYL; listed as Homo sapiens) [compound 267] | +++ (≥50 = +++)
24 | 270 (TLLTFFHEL; listed as Homo sapiens) [compound 270] | +++ (≥50 = +++)
25 | 271 (VLIEYNFSI; listed as Homo sapiens) [compound 271] | +++ (≥50 = +++)
26 | 272 (FVMEGEPPKL; listed as Homo sapiens) [compound 272] | ++ (≥20% = ++)
27 | 275 (AVPPPPSSV; listed as Homo sapiens) [compound 275] | ++ (≥20% = ++)
28 | 277 (KLQEELNKV; listed as Homo sapiens) [compound 277] | +++ (≥50 = +++)
29 | 278 (VLEDKVLSV; listed as Homo sapiens) [compound 278] | +++ (≥50 = +++)
30 | 280 (HLWGHALFL; listed as Homo sapiens) [compound 280] | +++ (≥50 = +++)
31 | 281 (LLLESDPKVYSL; listed as Homo sapiens) [compound 281] | ++ (≥20% = ++)
32 | 283 (ALSELLQQV; listed as Homo sapiens) [compound 283] | +++ (≥50 = +++)
33 | 285 (MLLDTVQKV; listed as Homo sapiens) [compound 285] | +++ (≥50 = +++)
34 | 286 (FLTEMVHFI; listed as Homo sapiens) [compound 286] | +++ (≥50 = +++)

Second part, the substance after the results:

Row | Peptide exchange | Substance
35 | ++ (≥20% = ++) | 235 (SLLNQPKAV; listed as Homo sapiens) [compound 235]
36 | +++ (≥50 = +++) | 237 (ALLEQTGDMSL; listed as Homo sapiens) [compound 237]
37 | +++ (≥50 = +++) | 242 (KLQEEIPVL; listed as Homo sapiens) [compound 242]
38 | ++ (≥20% = ++) | 243 (GLAEFQENV; listed as Homo sapiens) [compound 243]
39 | +++ (≥50 = +++) | 249 (YLYQILQGI; listed as Homo sapiens) [compound 249]
40 | +++ (≥50 = +++) | 251 (LLWGNLPEI; listed as Homo sapiens) [compound 251]
41 | ++ (≥20% = ++) | 254 (ALGDKFLLRV; listed as Homo sapiens) [compound 254]
42 | +++ (≥50 = +++) | 256 (FLNDIFERI; listed as Homo sapiens) [compound 256]
43 | ++ (≥20% = ++) | 258 (QLVQRVASV; listed as Homo sapiens) [compound 258]
44 | + (≥10% = +) | 259 (GPGIFPPPPPQP; listed as Homo sapiens) [compound 259]
45 | +++ (≥50 = +++) | 263 (SIIEYLPTL; listed as Homo sapiens) [compound 263]
46 | ++ (≥20% = ++) | 264 (TLHDQVHLL; listed as Homo sapiens) [compound 264]
47 | ++ (≥20% = ++) | 266 (FLLDKPQDL; listed as Homo sapiens) [compound 266]
48 | ++ (≥20% = ++) | 268 (SLDKDIVAL; listed as Homo sapiens) [compound 268]
49 | ++++ (≥75% = ++++) | 269 (GLLDCPIFL; listed as Homo sapiens) [compound 269]
50 | ++ (≥20% = ++) | 273 (SLNKQIETV; listed as Homo sapiens) [compound 273]
51 | +++ (≥50 = +++) | 274 (TLYNPERTITV; listed as Homo sapiens) [compound 274]
52 | +++ (≥50 = +++) | 276 (RMPTVLQCV; listed as Homo sapiens) [compound 276]
53 | ++ (≥20% = ++) | 279 (VLMDEGAVLTL; listed as Homo sapiens) [compound 279]
54 | ++ (≥20% = ++) | 282 (SLYALHVKA; listed as Homo sapiens) [compound 282]
55 | ++ (≥20% = ++) | 284 (KLMDPGSLPPL; listed as Homo sapiens) [compound 284]
